Data published in US20200317812A1 (AGENCY FOR SCIENCE TECHNOLOGY AND RESEARCH, published 2020).

Molecular target: T1, AXL receptor tyrosine kinase (Homo sapiens, UniProt P30530 26-894, O-linked glycan (site not stated) reported as the TAG_TNB1 epitope)
T1 sequence (looked up): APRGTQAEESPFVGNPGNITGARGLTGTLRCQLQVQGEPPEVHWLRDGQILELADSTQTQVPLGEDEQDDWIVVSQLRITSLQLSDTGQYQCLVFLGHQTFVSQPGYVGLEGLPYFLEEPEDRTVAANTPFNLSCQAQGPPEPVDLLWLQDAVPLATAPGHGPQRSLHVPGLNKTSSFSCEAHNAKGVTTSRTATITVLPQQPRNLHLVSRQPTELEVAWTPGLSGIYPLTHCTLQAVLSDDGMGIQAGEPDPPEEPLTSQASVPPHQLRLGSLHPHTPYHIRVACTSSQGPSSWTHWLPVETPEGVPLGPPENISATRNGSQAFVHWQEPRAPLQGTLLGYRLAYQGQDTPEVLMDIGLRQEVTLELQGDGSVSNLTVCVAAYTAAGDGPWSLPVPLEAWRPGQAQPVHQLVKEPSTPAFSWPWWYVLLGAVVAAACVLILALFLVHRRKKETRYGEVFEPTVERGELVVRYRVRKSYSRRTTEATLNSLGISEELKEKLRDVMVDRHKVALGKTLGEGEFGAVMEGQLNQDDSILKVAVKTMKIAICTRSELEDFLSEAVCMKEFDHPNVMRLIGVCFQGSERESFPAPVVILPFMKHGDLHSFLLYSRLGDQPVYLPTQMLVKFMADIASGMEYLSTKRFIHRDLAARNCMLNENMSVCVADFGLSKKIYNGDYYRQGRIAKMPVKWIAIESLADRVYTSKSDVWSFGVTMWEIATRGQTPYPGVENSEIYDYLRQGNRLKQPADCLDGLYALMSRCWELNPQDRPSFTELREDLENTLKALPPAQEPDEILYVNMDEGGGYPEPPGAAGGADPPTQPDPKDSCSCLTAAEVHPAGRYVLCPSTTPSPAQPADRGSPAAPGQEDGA
Assay: cell-based or functional assay

B1: ch_TAG_TNB1-saporin (antibody, V domains shown)
VH: QVKLQESGAELVKPGASVKLSCKASGFTFTSYYMYWVKQRPGQGLEWIGGVSPSNGGANFNEKFKTKATLTVDKSSSTAYMQLSSLTSEDSAVYYCTRFLYGPRYFDVWGQGTTVTVSS
VL: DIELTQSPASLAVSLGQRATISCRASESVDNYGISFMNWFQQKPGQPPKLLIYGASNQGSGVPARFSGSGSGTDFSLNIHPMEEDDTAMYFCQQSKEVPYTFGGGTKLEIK
modifications: Saporin toxin directly conjugated to the antibody; site and chain not stated
IC50, Cell Titre Glo cell viability, BT549 cells: 1.24 nM | IC50, Cell Titre Glo cell viability, H1299 cells: 0.0353 nM | IC50, Cell Titre Glo cell viability, Hs578T cells: 0.529 nM | IC50, Cell Titre Glo cell viability, MDA-MB-231 cells: 0.34 nM
